Test results taken from patent KR20220167207A (dated 2022).
Where two headings read alike, the source gives them in different places. Where no end group is shown, it is not given here.

T1: BSA-conjugated mouse CADM1 peptide (mouse, also: conjugated to BSA via added C-terminal Cys)
T1 construct: also called mouse peptide
T1 peptide: DSRAGEEGTIGAVDHC(BSA)

T2: BSA-conjugated human CADM1 peptide (human, also: conjugated to BSA via added C-terminal Cys)
T2 construct: also called human peptide; rhCADM1 peptide
T2 peptide: DSRAGEEGSIRAVDHC(BSA)

T3: CADM1 peptide expressed on SBC-5 small cell lung cancer cells (CADM1-SBC-5); peptide - transmembrane domain - … (human)
T3 construct: also called CADM1 펩타이드를 발현하는 SBC-5 세포
T3 sequence (Q9BY67 whole entry, looked up): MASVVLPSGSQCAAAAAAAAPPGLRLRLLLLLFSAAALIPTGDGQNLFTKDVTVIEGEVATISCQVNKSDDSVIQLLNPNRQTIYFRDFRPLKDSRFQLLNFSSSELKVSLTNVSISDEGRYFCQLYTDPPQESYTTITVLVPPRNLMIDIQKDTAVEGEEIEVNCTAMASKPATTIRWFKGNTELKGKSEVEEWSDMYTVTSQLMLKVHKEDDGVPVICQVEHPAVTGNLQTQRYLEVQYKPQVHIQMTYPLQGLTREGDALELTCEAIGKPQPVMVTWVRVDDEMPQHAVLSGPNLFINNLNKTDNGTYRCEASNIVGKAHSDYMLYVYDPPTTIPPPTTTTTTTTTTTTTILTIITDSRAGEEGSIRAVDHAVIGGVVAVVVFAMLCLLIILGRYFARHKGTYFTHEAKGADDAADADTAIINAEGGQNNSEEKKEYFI


How the values were obtained:
[1] = biological target: T1, BSA-conjugated mouse CADM1 peptide; assay: ELISA, scFv titrated on coated BSA-conjugated mouse CADM1 peptide, anti-HA-HRP, OD450
[2] = biological target: T2, BSA-conjugated human CADM1 peptide; assay: ELISA, scFv titrated on coated BSA-conjugated human CADM1 peptide, anti-HA-HRP, OD450
[3] = biological target: T3, CADM1 peptide expressed on SBC-5 small …; assay: flow cytometry, 1 ug scFv on 5x10^5 SBC-5 cells expressing the CADM1 peptide, PE anti-HA
[4] = biological target: T4, comparison structure: the same structure without the CADM1 peptide (Myc tag, hinge, transmembrane domain, …); assay: flow cytometry, 1 ug scFv on 5x10^5 cells with the structure without the CADM1 peptide, PE anti-HA
T4 construct: also called 비교군 구조; CADM1 펩타이드를 포함하지 않는 세포

[5] = biological target: T1, BSA-conjugated mouse CADM1 peptide; assay: ELISA, scFv titrated on coated BSA-conjugated mouse CADM1 peptide, anti-HA-HRP, OD450
[6] = biological target: T2, BSA-conjugated human CADM1 peptide; assay: ELISA, scFv titrated on coated BSA-conjugated human CADM1 peptide, anti-HA-HRP, OD450

Binder	Bmax [1]	Kd [1] [nM]	Bmax [2]	Kd [2] [nM]	결합력 (%) [3] [%]	결합력 (%) [4] [%]	Bmax [5]	Kd [5] [nM]	Bmax [6]	Kd [6] [nM]
3C5 (scFv, V domains shown, Tested as purified scFv with His tag and HA tag; chicken immune library) VH: AVTLDESGGGLQTPGRALSLVCKGSGFTFSSVNMFWVRQAPGKGLEYVAGIRKDGGGPLYGAAVKGRATISRDNGQSTVRLQLNNLRAEDTGTYYCAKAAGSCWAGCTGFIDAWGHGTEVIVSS VL: LTQPSSVSANPGETVKITCSGGYNYYGWYQQKAPGSAPVTLIYANTDRPSDIPSRFSGSKFGSTATLTITGVQAEDEAVYFCGSRDSSYVGVFGAGTTLTVL	4.05	41.7	4.41	49.7	1.1					
3G10 (scFv, V domains shown, Tested as purified scFv with His tag and HA tag; chicken immune library) VH: AVTLDESGGGLQTPGGGLSLVCKGSGFTFSSVNMFWVRQAPGKGLEYVAGIRKDGGGPLYGAAVKGRATISRDNGQSTVRLQLNNLRAEDTGTYYCAKAAGSCWAGCTGFIDAWGHGTEVIVSS VL: LTQPSSVSANPGETVKITCSGSTGSYGWFQQKSPGSALVTLIYNGNNRPSDIPSRFSGSKSGSTGTLTITGVQADDEAVYFCGGRESRSNPGIFGAGTTLTVL	1.62	0.926	1.91	2.77						
4A2 (scFv, V domains shown, Tested as purified scFv with His tag and HA tag; chicken immune library) VH: AVTLDESGGGLQTPGRALSLACKGSGFTFSSYAMNWVRQAPGKGLEFVAQITSSGRYTYYGTAVKGRATISRDNGQSTVRLQLNNLRAEDSGTYYCAKDAAAGYYDGATAGDIDAWGHGTEVIVSS VL: LTQPSSVSANPGETVKITCSGGYNRYGWYQQKSPGSAPVTVIYSNNQRPSNIPSRFSGSKSGSTATLTITGVQAEDEAVYYCGSYDSSDGYAGIFGAGTTLTVL	4.49	79.2	4.14	4.19	18.5	0.7				
4A8 (scFv, V domains shown, Tested as purified scFv with His tag and HA tag; chicken immune library) VH: AVTLDESGGGLQTPGGGLSLVCKASGFTFSSYAMNWVRQAPGKGLEFVAQITSSGRYTYYGTAVKGRATISRDNGQSTVRLQLNNLRAEDSGTYYCAKDAAAGYYDGATAGDIDAWGHGTEVIVSS VL: LTQPSSVSANLGGTVKITCSGGSGSNHYGWYQQKSPGSAPVTVIYSNNKRPSNIPSRFSGSKFGSTATLTITGVQADDEAVYYCGGYDSSAGYIGPFGAGTTLTVL	4.43	70.2	4.22	16.4	10.1	0.9				
5RA8 (scFv, V domains shown, Tested as purified scFv with His tag and HA tag; human synthetic library) VH: EVQLLESGGGLVQPGGSLRLSCAASGFTFSSYGMSWVRQAPGKGLEWVSGISYSGGSTYYADSVKGRFTISRDNSKNTLYLQMNSLRAEDTAVYYCARPISRLGAYMWSSSYAMDVWGQGTLVTVSS VL: QSVLTQPPSASGTPGQRVTISCSGSSSNIGSNYVTWYQQLPGTAPKLLIYANSNRPSGVPDRFSGSKSGTSASLAISGLRSEDEADYYCGSWDASLNGYVFGGGTKLTVL							4.11	2	4.12	1.9
4H7 (scFv, V domains shown, Tested as purified scFv with His tag and HA tag; chicken immune library) VH: AVTLDESGGGLQTPGGTLSLVCKASGFDFSSYEMAWVRQAPGKGLEYVAGIDNTGSATNYGAAVKGRATISRDNGQSTVRLQLNNLRAEDTATYFCAKDAYGYSGSDSWYAANPAYIDAWGHGTEVIVSS VL: LTQPSSVSANPGETVKITCSGSSGSYGWYQQKSPGSAPVTVIYDNTNRPSDIPSRFSGSKSGSTGTLTITGVQAEDEAVYFCGSRDSSYVGIFGAGTTLTVL	5.57	394	4.48	52.7	3.3					
5A2 (scFv, V domains shown, Tested as purified scFv with His tag and HA tag; chicken immune library) VH: AVTLDESGGGLQTPGGTLSLVCKGSGFDFSSVNMFWVRQAPGKGLEYVAGIRKDGGGPLYGAAVKGRATISRDNGQSTVRLQLNNLRAEDTGTYFCAKAAGSCWAGCTGFIDAWGHGTEVIVSS VL: LTQPSSVSANPGETVKITCSGGSSYYGWYQQKSPGSAPVTVIYYNDKRPSDIPSRFSGSKSGSTATLTITGVQAEDEAVYYCGSADSSYVGIFGAGTTLTVL	4.32	59.2	4.38	47.9	1.2					
4C8 (scFv, V domains shown, Tested as purified scFv with His tag and HA tag; chicken immune library) VH: AVTLDESGGGLQTPGRALSLVCKASGFSFSSYSMYWVRQAPGKGLEYVAEITSSGRYTYYGSAVKGRATISRDNGQSTVRLQLNNFRAEDTATYFCAKGSGTGYSDSGAGGEIDAWGHGTEVIVSS VL: LTQPSSVSANPGETVKITCSGGSGSYYGWYQQKSPGSAPVTVIYQNKQRPSNIPSRFSGSKSGSTGTLTITGVQAEDEAVYFCGNYESSAGIFGAGTTLTVL	2.06	476	4.47	66.5	2.3					

The next lines start with the values.

Bmax [1]	Kd [1] [nM]	Bmax [2]	Kd [2] [nM]	결합력 (%) [3] [%]	결합력 (%) [4] [%]	Bmax [5]	Kd [5] [nM]	Bmax [6]	Kd [6] [nM]	Binder
4.54	136	4.52	123							5A5 (scFv, V domains shown, Tested as purified scFv with His tag and HA tag; chicken immune library) VH: AVTLDESGGGLQTPGGGLSLVCKGSGFTFSSVNMFWVRQAPGKGLEYVAGIRKDGGGPLYGAAVKGRATISRDNGQSTVRLQLNNLRAEDTGTYYCAKAAGSCWAGCTGFIDAWGHGTEVIVSS VL: LTQPSSVSANLGGTVKITCSGSSGYGYGWYQQKSPGSAPVTVIYYNNKRPSDIPSRFSGSKSGSTATLTITGVQVEDEAVYYCGSADSSAGYVGIFGAGTTLTVL
						4.39	39.5	4.29	10.4	5RA5 (scFv, V domains shown, Tested as purified scFv (one chain) with His tag and HA tag, from pComb3X in E. coli; human synthetic library) VH: EVQLLESGGGLVQPGGSLRLSCAASGFTFSNYAMSWVRQAPGKGLEWVSWIYHGGGDTYYADSVKGRFTISRDNSKNTLYLQMNSLRAEDTAVYYCARAAVYCKRTNCYSYDAMDVWGQGTLVTVSS VL: QSVLTQPPSASGTPGQRVTISCSGSSSNIGNNSVTWYQQLPGTAPKLLIYSNNNRPSGVPDRFSGSKSGTSASLAISGLRSEDEADYYCGAWDDSLNAYVFGGGTKLTAL
								4.25	11.9	5RB6 (scFv, V domains shown, Tested as purified scFv with His tag and HA tag; human synthetic library; also called 5RB6(H); 5RB6 # Human specific) VH: EVQLLESGGGLVQPGGSLRLSCAASGFTFSDYAMSWVRQAPGKGLEWVSWIYYDSGSKYYADSVKGRFTISRDNSKNTLYLQMDSLRAEDTAVYYCAKHGRNTKNWPWYSANGMDVWGQGTLVTVSS VL: QSVLTQPPSASGTPGQRVTISCTGSSSNIGSNSVSWYQQLPGTAPKLLIYSDSKRPSGVPDRFSGSKSGTSASLAISGLRSEDEADYYCGAWDSSLSAYVFGGGTKLTVL
						4.54	114	4.42	43.7	5RA7 (scFv, V domains shown, Tested as purified scFv with His tag and HA tag; human synthetic library) VH: EVQLLESGGGLVQTGGSLRLSCAASGFTFSDYAMSWVRQAPGRGLEWVSAIYPGNSSIYYADSVKGRFTISRDNSKNTLYLQMNSLRAEDTAVYYCARVPVQCMLTRCYSYDAMDVWGQGTLVTVSS VL: QSVLTQPPSASGTPGQRVTISCTGSSSNIGNNSVTWYQQLPGTAPKLLIYADSHRPSGVPDRFSGSKSGTSASLAISGLRSEDEADYYCGAWDSSLNAYVFGGGTKLTVL
						6.13	666	5.07	271	5RH12 (scFv, V domains shown, Tested as purified scFv with His tag and HA tag; human synthetic library) VH: EVQLLESGGGLVQPGGSLRLSCAASGFTFSNYAMSWVRQAPGKGLEWVSWIYHGGGDTYYADSVKGRFTISRDNSKNTLYLQMSSLRAEDTAVYYCARARVHCQQRRCSSYDAMDVWGQGTLVTVSS VL: QSVLTQPPSASGTPGQRVTISCSGSSSNIGSNSVSWYQQLPGTAPKLLIYADSHRPSGVPDRFSGSKSGTSASLAISGLRSEDEADYYCGAWDDSLSAYVFGGGTKLTVL
						3.64	6.97	3.52	8.05	5RG9 (scFv, V domains shown, Tested as purified scFv with His tag and HA tag; human synthetic library) VH: EVQLLESGGGLVQPGGSLRLSCAASGFTFSSYGMSWVRQAPGKGLEWVSWISYSGGNTYYADSVKGRFTISRDNSKNTLYLQMNSLRAEDTAVYYCARPISHFGAYMWSSSYAMDVWGQGTLVTVSS VL: QSVLTQPPSASGTPGQRVTISCSGSSSNIGSNYVTWYQQLPGTAPKLLIYANSNRPSGVPDRFSGSKSGTSASLAISGLRSEDGADYYCGAWDASLNGYVFGGGTKLTVL
						4.19	4.8	4.19	4.23	6RC7 (scFv, V domains shown, Tested as purified scFv with His tag and HA tag; human synthetic library) VH: EVQLLESGGGLVQPGGSLRLSCAASGFTFSNYAMSWVRQAPGKGLEWVSGIYPNSGSNTYYADSVKGRFTISRDNSKNTLYLQMNSLRAEDTAVYYCARAIGPCLRYPCYSADAMDVWGQGTLVTVSS VL: QSVLTQPPSASGTPGQRVTISCTGSSSNIGSNYVNWYQQLPGTAPKLLIYANSNPPSGVPDRFSGSKSGTSASLGISGLRSEDEADYYCGAWDDNLNAYVFVGGTKLTVL
